Experiment: yeast display, Sf9 membrane polyspecificity reagent, FACS + sequencing; frameworks hold sequencing errors
In short: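 In a synthetic yeast display library (Saccharomyces cerevisiae BJ5465), nanobody expression was induced with galactose for 36–48 hours. FACS gates were set low and high (top ~1%) using anti-HA fluorescence for expression and streptavidin fluorescence for binding of the Sf9 membrane reagent. Each polyreactivity label is drawn from the gate of origin.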

QVQLVESGGGLVQAGGSLRLSCAASGSTILYNTMGWYRQAPGKERELVATITSRGDRTYYADSVKGRFTISRDNAKNTVYLQMNSLKPEDTAVDYCAADRTDFWPYDYWGQGTQVTVSS
polyreactivity (PSR sort gate): low polyreactivity

QVQLVESGGGLVQAGGSLRLSCAASGSTINRNAMGWYRQAPGKERELVAGISYGGGSTYADSVKGRFTISRDNAKNTVYLQMNSLKPEDTAVYYCTADFRHGHRHDMNYWGQGTQVTVSS
polyreactivity (PSR sort gate): low polyreactivity

QVQLVESGGGLVQAGGSLRLSCAASGSTINWNAMGWYRQAPGKERELVASINRGDSTYYADSVKGRFTISRDNAKNTVYLQMNSLKPEDTAVYYCAARRYYSLRTFLYCFSKYDYWGQGTQVTVSS
polyreactivity (PSR sort gate): high polyreactivity

QVQLVESGGGLVQAGGSLRLSCAASGSTINYNAMGWYRQAPGKERELVAAIDSGVSTNYADSVKGRFTITRDNAKNTVYLQMNSLKPEDTAVYYCNADPDYFDYWGQGTQVTVSS
polyreactivity (PSR sort gate): low polyreactivity

QVQLVESGGGLVQAGGSLRLSCAASGSTIPDYTMGWYRQAPGKEREFVAAISRIGGTYYADSVKGRFSISRDNAKNTVYLQMNSLKPEDTAVYSCNADPQGLSGRYHGFDYWGQGTQVTVSS
polyreactivity (PSR sort gate): low polyreactivity

QVQLVESGGGLVQAGGSLRLSCAASGSTIPLYAMGWYRQAPGKERELVAAISRRGGRTYYADSVKGRFTISRDNAKNTVYLQMNSLKPEDTAVYYCATAVGSRVDYWGQGTQVTVSS
polyreactivity (PSR sort gate): high polyreactivity

QVQLVESGGGLVQAGGSLRLSCAASGSTIPPYAMGWYRQAPGKERELVAAITSGGSTYYAESVKGRFTISRDNAKNTVYLQMNSLKPEDTAVYSCAASWDPWEYDYWGQGTQVTVSS
polyreactivity (PSR sort gate): low polyreactivity

QVQLVESGGGLVQAGGSLRLSCAASGSTIPRNAMGWYRPAPGKERELVAAITSGGSTNYADSVKGRFTLSRDNAKNTVYLQINSLKPEDTAVYYCAADEQVNTQYVVWGDYWGQGTQVTVSS
polyreactivity (PSR sort gate): low polyreactivity

QVQLVESGGGLVQAGGSLRLSCAASGSTIPSNAMGWYRQAPGKERELVASITYSDGTTRYADSVKGRFTISRDNAKNTVYLLMNSLKPEDTAVYYCNAVYYREGMDYWGLGTQVTVSS
polyreactivity (PSR sort gate): low polyreactivity

QVQLVESGGGLVQAGGSLRLSCAASGSTIPSYAMGWYRAAPGKERELVASITYSDGPTRYADSEKGRFTISRDNAKNTVFLQMNSLKPEDTAVYYCNAVYYREGMDYWGQGNQVTVSS
polyreactivity (PSR sort gate): low polyreactivity

QVQLVESGGGLVQAGGSLRLSCAASGSTIPYYAMGWYRPAPGKERELVARIRWNGDSTYYADSVKGRFTISRDNAKNTVYLQMNSLKPEDTAVYYCARQGYTLYRTRYRYDYWGQGTQVTASS
polyreactivity (PSR sort gate): high polyreactivity

QVQLVESGGGLVQAGGSLRLSCAASGSTIRHYAMGWYRQAPGKERELVAAISYSGGSTYYADSVKGRFTISRYNAKNNVYLQMNSLKPEDTAVYYCAARSPSKMGYWGQGTQVTVSS
polyreactivity (PSR sort gate): high polyreactivity

QVQLVESGGGLVQAGGSLRLSCAASGSTIRSNAMGWYRQEPGKERELVAAISRTGGRTYYADSVKGRFTISRDNAKNTVYLQMNSLKPEDTAVYYCARPDKGLEYSENYYWGQGTQVTVSS
polyreactivity (PSR sort gate): high polyreactivity

QVQLVESGGGLVQAGGSLRLSCAASGSTISGYAMGWYRQAPGKEREFVASIRRSGGSTYYADSVKGRFTISRDNAKNTVYLQMNSLKPEDTAVYYCAKRYVVSRGDYWGQGTQVTVSS
polyreactivity (PSR sort gate): high polyreactivity

QVQLVESGGGLVQAGGSLRLSCAASGSTISRNAMGWSRQAPGKERELVAAISWRGGRTYYADSVKGRFTISRDNAKNTVYLQMNSLKPEDTAVYYCAAEHKYRYDYWGQGTQVTVSS
polyreactivity (PSR sort gate): low polyreactivity

QVQLVESGGGLVQAGGSLRLSCAASGSTISSYAMGWYRPAPGKERELVAANTSGGSTYYADSLKGRFTISRDNAKNSVSLQMNSLKPEDTAVYYCDLGSTTMDYWGQGTQVTVSS
polyreactivity (PSR sort gate): low polyreactivity

QVQLVESGGGLVQAGGSLRLSCAASGSTISYYAMGWYRQAPGKERELVAAITWNGGSTYYADSVKGRFTISRDNAKNTVYLQMNSLKPEDTAVYYCAKDSYYYDYDYWGQGTQVTVSS
polyreactivity (PSR sort gate): low polyreactivity

QVQLVESGGGLVQAGGSLRLSCAASGSTIVGYAMGWYRQAPGKERELVAAISGSGTSTYYADSVKGRFTISRDNAKNTVYLQMNSLKPEDSAVYYCNADPIFVYSSYNYWGQGTQVTVSS
polyreactivity (PSR sort gate): low polyreactivity

QVQLVESGGGLVQAGGSLRLSCAASGSTIVRYVMGWYRQAPGKERELVAAISRRGGSTYYADSVKGRFTISRDNAKNTVYLQMNSLKPEDTAVYYCARTVGYRTLLESDSWGQGTQVTVSS
polyreactivity (PSR sort gate): high polyreactivity

QVQLVESGGGLVQAGGSLRLSCAASGSTIVTKAMGWYRQAPGKERELVAAISFSVGRTYYADSVKGRFTISRDNAKNTVYLQMNSLKPEDTAVYYCAAGLRVTPALHSYGYWGQGTQVTVSS
polyreactivity (PSR sort gate): high polyreactivity

QVQLVESGGGLVQAGGSLRLSCAASGSTIWSYAMGWYRQAPGKERELVASITWSGGSTYADSVKGRFTISRDNAKNTVYLQMNSLKPEDTAVYYCARESTLTYYSDDFDYWGQGTQVTVSS
polyreactivity (PSR sort gate): low polyreactivity

QVQLVESGGGLVQAGGSLRLSCAASGSTIYGYTMGWYRQAPGKEREMVAVITSGGSTYFADSVKGRFTISRDNAKNTVYLQMNSLKPEVTAVYYCAKRYGYTAYGRPWRIGRTYDYWGQGTQVTVSS
polyreactivity (PSR sort gate): low polyreactivity

QVQLVESGGGLVQAGGSLRLSCAASGSTIYLNAMGWYRQAPGKERELVAAIDYRGGSTYYADSVKGRFTISRDNAKNTVYLQMNSLKPEDTAVYYCNADYVYVHYQPGYYWGQGTQVTVSS
polyreactivity (PSR sort gate): low polyreactivity

QVQLVESGGGLVQAGGSLRLSCAASGSTIYNYAMGWYRQATGKERELVAVISRSGGRTYYADSVKGRFTISRDNAKNTVYLQMNSLKPEDTAVYYCAADTYRGYDFDYWGQGTQVTVSS
polyreactivity (PSR sort gate): high polyreactivity

QVQLVESGGGLVQAGGSLRLSCAASGSTIYPYAMGWYRQAPGKERELVAAISSGGRTYYADSVKGRFTISRDNAKNTVYLQMNSLKPEDTAVYYCAARVTKKYRRTYDYWGQGTQVTVSS
polyreactivity (PSR sort gate): high polyreactivity

QVQLVESGGGLVQAGGSLRLSCAASGSTIYTYVMGWYRQAPGKERELVAAISWSGSSTYYADSVKGRFTISRDNAKNTVYLQMNSLKPEDTAVYYCNAQYRRGWWGVEYGYWGQGTQVTVSS
polyreactivity (PSR sort gate): low polyreactivity

QVQLVESGGGLVQAGGSLRLSCAASGSTIYYNAMGWYRQAPGKERELVAAISKSSSRTYYADSVKGRFTISRDNAKYSVYLQMNSLKPEDTAVYYCAADAVYYHFDYWGQGTQVTVSS
polyreactivity (PSR sort gate): high polyreactivity

QVQLVESGGGLVQAGGSLRLSCAASGSTIYYYALGWYRQAPGKERELVAAISWSGASTFYADSVKGRFTISRDNAKNTVDLKMNSLKPVDTAVYYCAAVIKGWGQGTQVTVSS
polyreactivity (PSR sort gate): high polyreactivity

QVQLVESGGGLVQAGGSLRLSCAASGSTLAGYAMGWYRQAPGKERELVAAIDWTGGSTTYADSVKGRFTISRDNAKNTVYLQMNSLKPEDTAVYYCNVDLGVNGDYWGQGTQVTVSS
polyreactivity (PSR sort gate): low polyreactivity

QVQLVESGGGLVQAGGSLRLSCAASGSTLAGYAMGWYRQAPGKERELVAAITRRGGRTYYADSVKGRFTISRDNAKNTVYLQMNSLKPEDTAVYYCAAQRSVKVDYWGQGTQVTVSS
polyreactivity (PSR sort gate): high polyreactivity

QVQLVESGGGLVQAGGSLRLSCAASGSTLAGYAMGWYRQAPGQERELVAAIDWTGGSTTYADSVKGRFTISRDNAKNTVYLQMNSLKPEDTAVYYCNVDLGVNCEYWGQGTQVTVSW
polyreactivity (PSR sort gate): low polyreactivity

QVQLVESGGGLVQAGGSLRLSCAASGSTLAKYTMGWYRQAPGKERELVATISRRGGSTYYADSVKGRFTISRDNAKNTVYLQMNSLKPEDTAVYYCNAVGHTSIRRALDILDYWGQGTQVTVSS
polyreactivity (PSR sort gate): high polyreactivity

QVQLVESGGGLVQAGGSLRLSCAASGSTLAPYVMGWYSQAPGKERELVAVISTRTGRTYYADSVKGRFTISRDNAKNTVSLQMNSLKPEDTAVYYCNAYPHAYTGSTREGDYWGQGTQVTVSS
polyreactivity (PSR sort gate): high polyreactivity

QVQLVESGGGLVQAGGSLRLSCAASGSTLASYAMGWYSQAPGKERELVAVIDSGGSTYYADSVKGRFTISRDNAKNSVYVQMNSLKPEDTAVYDCAAGWEFSGVLTLFGYWGQGTQVTVSS
polyreactivity (PSR sort gate): low polyreactivity

QVQLVESGGGLVQAGGSLRLSCAASGSTLATYTMGWYRLAPGTVRELVGAISFGGSTYYADSVKGRFTISRDNAKNTVYLQMNSLKPVDTAVYYCAVDGDSYWGAYYYSDGYWGQGTQVTVSS
polyreactivity (PSR sort gate): low polyreactivity

QVQLVESGGGLVQAGGSLRLSCAASGSTLDSNAMGWYRQAPGKERELVAGIDWSGGSTYADSVKGRFTISRDNAKNTVYLQMNSLKPEDTAVYYCNRKLTRFTSFPLDYWGQGTQVTVSS
polyreactivity (PSR sort gate): low polyreactivity

QVQLVESGGGLVQAGGSLRLSCAASGSTLEFNARGWSRQAPGKERELVAVINRSDGSTYYADSVKGRFTISRDNAKNTVYLQMNSLKPEDTAVYYCAADRHQVSVISTEDYWGQGTQVTVSS
polyreactivity (PSR sort gate): low polyreactivity

QVQLVESGGGLVQAGGSLRLSCAASGSTLFINAMGWYRQAPGKERELVAAITSGTSTNYADSVKGRFTISRDNAKNTVYLQMNSLKPEDTAVYYCAVDYWYVPYYWGQGTQVTVSS
polyreactivity (PSR sort gate): low polyreactivity

QVQLVESGGGLVQAGGSLRLSCAASGSTLFYYAMGCYRQAPGKERELVAAITQNGGGTYYADSVKGRFTISRDNAKNTVYLQMNSLKPEDTAVYYCAVTQEYIADHWYGYWGQGTQVTVSS
polyreactivity (PSR sort gate): low polyreactivity

QVQLVESGGGLVQAGGSLRLSCAASGSTLGGYAMGWYRQAPGKERELVAAIRWGGNTYYADSVKGRFTISRDNAKNTVYLQMNSLKPEDTAVYYCAADRWYYFLMYYWGQGTQVTVSS
polyreactivity (PSR sort gate): low polyreactivity

QVQLVESGGGLVQAGGSLRLSCAASGSTLGHNAMGWYRQAPGKERELVAGISWRGGSTYYADSVKGRFTISRDNAKNTVYLQMNSLKPEDTAVYYCAAVSYPAVYGFDYWGPGTQVTVSS
polyreactivity (PSR sort gate): high polyreactivity

QVQLVESGGGLVQAGGSLRLSCAASGSTLGRNAMGWYRQAPGKERELVAGIDGSAGSTYYADSVKGRFTISRDNAKNTVYLQMNSLKPEDTAVYYCNADVIDLDYDYWGQGTQVTVSS
polyreactivity (PSR sort gate): low polyreactivity

QVQLVESGGGLVQAGGSLRLSCAASGSTLGRYAMGWYRQAPGKERELVAAISSSGTTYYADSVKGRFTISRDNAKNTVYFQMNSLKPEDTAVYYCNARGFRVARHAAWYQYYYWGQGTQVTVSS
polyreactivity (PSR sort gate): high polyreactivity
